According to patent US20110262366A1:

Tests used:
[1] = molecular target: endothelial cell receptor on HAEC (human aortic endothelial cells); experiment: competition, 100 ng/ml VEGF121 against 2% BRU-114 microbubbles (competitor) on HAEC, static
[2] = molecular target: endothelial cell receptor on HAEC (human aortic endothelial cells); experiment: competition, 200 ng/ml VEGF121 against 2% BRU-114 microbubbles (competitor) on HAEC, static
[3] = molecular target: endothelial cell receptor on HAEC (human aortic endothelial cells); experiment: competition, 400 ng/ml VEGF121 against 2% BRU-114 microbubbles (competitor) on HAEC, static
[4] = molecular target: endothelial cell receptor on HAEC (human aortic endothelial cells); experiment: competition, VEGF165 against 5% DPPE-GTKPPR microbubbles (competitor) on HAEC, static
[5] = molecular target: endothelial cell receptor on HAEC (human aortic endothelial cells); experiment: competition, 25 ng/ml VEGF165 against 2% BRU-114 microbubbles (competitor) on HAEC, static
[6] = molecular target: NP-1/Fc (Neuropilin-1/Fc, R&D Systems); experiment: fluorescence polarization, competition against OG-labeled BRU-326 (competitor) on NP-1/Fc
NP-1/Fc (Neuropilin-1/Fc, R&D Systems), sequence (Q9QWJ9 22-855): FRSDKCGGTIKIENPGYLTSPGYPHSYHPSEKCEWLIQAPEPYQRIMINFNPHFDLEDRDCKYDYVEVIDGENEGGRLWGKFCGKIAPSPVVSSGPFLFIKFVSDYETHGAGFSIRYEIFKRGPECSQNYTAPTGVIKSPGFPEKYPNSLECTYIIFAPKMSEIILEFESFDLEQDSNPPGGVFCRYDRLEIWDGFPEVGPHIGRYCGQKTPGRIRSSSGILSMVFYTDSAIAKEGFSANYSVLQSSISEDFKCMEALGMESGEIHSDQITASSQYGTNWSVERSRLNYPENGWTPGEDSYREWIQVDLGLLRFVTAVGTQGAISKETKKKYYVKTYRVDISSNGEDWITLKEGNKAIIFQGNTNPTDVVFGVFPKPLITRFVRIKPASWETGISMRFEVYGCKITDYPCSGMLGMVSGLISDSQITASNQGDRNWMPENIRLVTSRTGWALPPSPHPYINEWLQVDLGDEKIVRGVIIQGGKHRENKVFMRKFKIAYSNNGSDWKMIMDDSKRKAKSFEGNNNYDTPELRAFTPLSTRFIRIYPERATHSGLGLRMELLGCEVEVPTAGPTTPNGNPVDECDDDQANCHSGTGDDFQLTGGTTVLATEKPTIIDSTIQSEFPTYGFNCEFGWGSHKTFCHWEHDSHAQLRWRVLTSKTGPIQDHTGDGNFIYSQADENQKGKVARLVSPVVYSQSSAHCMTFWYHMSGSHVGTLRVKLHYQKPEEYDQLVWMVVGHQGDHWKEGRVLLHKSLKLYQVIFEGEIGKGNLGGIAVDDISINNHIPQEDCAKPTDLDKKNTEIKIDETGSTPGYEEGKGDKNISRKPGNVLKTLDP

[7] = molecular target: endothelial cell receptor on HAEC (human aortic endothelial cells); experiment: competition, 100 ng/ml VEGF165 against 2% BRU-114 microbubbles (competitor) on HAEC, static
[8] = molecular target: endothelial cell receptor on HAEC (human aortic endothelial cells); experiment: competition, 200 ng/ml VEGF165 against 2% BRU-114 microbubbles (competitor) on HAEC, static
[9] = molecular target: endothelial cell receptor on HAEC (human aortic endothelial cells); experiment: competition, 25 ng/ml VEGF165 against 5% DPPE-GTKPPR microbubbles (competitor) on HAEC, static
[10] = molecular target: endothelial cell receptor on HAEC (human aortic endothelial cells); experiment: competition, 50 ng/ml VEGF165 against 5% DPPE-GTKPPR microbubbles (competitor) on HAEC, static
[11] = molecular target: endothelial cell receptor on HAEC (human aortic endothelial cells); experiment: competition, 75 ng/ml VEGF165 against 5% DPPE-GTKPPR microbubbles (competitor) on HAEC, static
[12] = molecular target: endothelial cell receptor on HAEC (human aortic endothelial cells); experiment: competition, 12.5 ng/ml VEGF165 against 5% DPPE-GTKPPR microbubbles (competitor) on HAEC, static
[13] = molecular target: endothelial cell receptor on HAEC (human aortic endothelial cells); experiment: competition, 6.25 ng/ml VEGF165 against 5% DPPE-GTKPPR microbubbles (competitor) on HAEC, static
[14] = molecular target: endothelial cell receptor on HAEC (human aortic endothelial cells); experiment: competition, 125 ng/ml KDR/Fc against 5% DPPE-GTKPPR microbubbles (competitor) on HAEC, static
[15] = molecular target: endothelial cell receptor on HAEC (human aortic endothelial cells); experiment: competition, 250 ng/ml KDR/Fc against 5% DPPE-GTKPPR microbubbles (competitor) on HAEC, static
[16] = molecular target: endothelial cell receptor on HAEC (human aortic endothelial cells); experiment: competition, 500 ng/ml KDR/Fc against 5% DPPE-GTKPPR microbubbles (competitor) on HAEC, static
[17] = molecular target: endothelial cell receptor on HAEC (human aortic endothelial cells); experiment: competition, 1000 ng/ml KDR/Fc against 5% DPPE-GTKPPR microbubbles (competitor) on HAEC, static
[18] = molecular target: endothelial cell receptor on HAEC (human aortic endothelial cells); experiment: competition, 2500 ng/ml KDR/Fc against 5% DPPE-GTKPPR microbubbles (competitor) on HAEC, static
[19] = molecular target: endothelial cell receptor on HAEC (human aortic endothelial cells); experiment: conjugated fluorescent beads on confluent HAEC, static 30 min, image analysis (Example 2, experiment 1)

soluble human KDR/Fc chimera (R&D Systems Inc.), sequence (P35968 20-764, change not shown): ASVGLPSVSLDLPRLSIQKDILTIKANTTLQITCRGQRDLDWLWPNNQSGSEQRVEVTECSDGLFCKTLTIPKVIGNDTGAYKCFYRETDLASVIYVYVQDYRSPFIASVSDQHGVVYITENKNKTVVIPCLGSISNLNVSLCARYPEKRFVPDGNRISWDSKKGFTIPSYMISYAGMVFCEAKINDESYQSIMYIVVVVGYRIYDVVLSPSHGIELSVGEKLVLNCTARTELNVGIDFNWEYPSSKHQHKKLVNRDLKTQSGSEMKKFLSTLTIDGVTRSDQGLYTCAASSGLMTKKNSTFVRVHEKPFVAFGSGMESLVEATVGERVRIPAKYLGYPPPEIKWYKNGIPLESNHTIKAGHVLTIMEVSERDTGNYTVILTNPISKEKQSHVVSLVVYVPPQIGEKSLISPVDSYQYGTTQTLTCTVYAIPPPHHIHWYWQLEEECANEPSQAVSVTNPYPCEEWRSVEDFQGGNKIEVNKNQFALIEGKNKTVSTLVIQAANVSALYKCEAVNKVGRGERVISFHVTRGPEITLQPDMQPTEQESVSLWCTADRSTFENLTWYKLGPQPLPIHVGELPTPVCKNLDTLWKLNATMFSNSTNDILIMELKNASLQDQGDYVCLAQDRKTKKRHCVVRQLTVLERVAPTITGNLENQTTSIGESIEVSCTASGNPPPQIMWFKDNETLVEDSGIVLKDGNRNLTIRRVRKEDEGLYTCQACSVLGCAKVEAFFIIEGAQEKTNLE

VEGF121 (from UniProt P15692 27-147) (ligand)
Bubbles Bound in presence of competitor [1]: 878 bubbles
Bubbles Bound in presence of competitor [2]: 849 bubbles
Bubbles Bound in presence of competitor [3]: 778 bubbles

VEGF165 (from UniProt P15692 27-191) (ligand)
IC50 [4]: 0.0125 µg/mL
Bubbles Bound in presence of competitor [5]: 144 bubbles
IC50 [6]: 0.2 µM
Bubbles Bound in presence of competitor [7]: 94 bubbles
Bubbles Bound in presence of competitor [8]: 70 bubbles
Bubbles Bound in presence of competitor [9]: 342 bubbles
Bubbles Bound in presence of competitor [10]: 226 bubbles
Bubbles Bound in presence of competitor [11]: 190 bubbles
Bubbles Bound in presence of competitor [12]: 599 bubbles
Bubbles Bound in presence of competitor [13]: 1180 bubbles

soluble human KDR/Fc chimera (R&D Systems Inc.) (from UniProt P35968 20-764) (Fc fusion)
Bubbles Bound in presence of competitor [14]: 1030 bubbles
Bubbles Bound in presence of competitor [15]: 786 bubbles
Bubbles Bound in presence of competitor [16]: 342 bubbles
Bubbles Bound in presence of competitor [17]: 75 bubbles
Bubbles Bound in presence of competitor [18]: 84 bubbles

BSA-conjugated fluorescent beads (from UniProt P02769 25-607)
Integrated density of bound beads (arbitrary units) [19]: 1.61
